According to the supplement of paper PMC12042874:
± gives the uncertainty stated by the source.

assay: amyloid nucleation score (Sup35N fusion, yeast selection) (log enrichment); library NNK3; higher = more nucleation; inactive = no reads after selection
Outline: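 The nucleation score equals the log enrichment of output over input reads from DiMSum, centred on the mode score of non-aggregating sequences. It was computed only for sequences with 100 or more input reads. The reads came from Illumina sequencing of plasmid inserts from psi-negative yeast expressing Sup35N fused to peptides of 20 random codons, induced with 100 μM copper sulfate for 24 hours and grown 7 days at 30°C without adenine and uracil.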

| Substance | amyloid nucleation score |
| --- | --- |
| GPFQLA | inactive |
| INGSGSAIYGRITRGLNGDS | inactive |
| LRVYYYNMILDDFCVFVLEG | 1.48 ± 0.13 |
| SIMFGNLSMAKVKYMNFL | 0.862 ± 0.12 |
| VDYFW | inactive |
| ISLFDNNLRGWMYGVFRSIA | inactive |
| PYLAGWRSLIPFNTSLCSGC | inactive |
| ILVFR | inactive |
| VLKMAACNPGTNSLSTPGCG | inactive |
| EIVVYFEFLCYFVLEVLKSL | inactive |
| TARVMILP | inactive |
| RIVSRWCDNLNHTDCECCVC | inactive |
| ECRYRTRR | inactive |
| WDLLTKLHVKIKFLDRGMMS | inactive |
| LFEYGYCMIGIQLLKRY | inactive |
| CQSKLKLSMLCRWFRCTIGK | inactive |
| GVLCMWHLCFDVCDGKIIGG | 1.74 ± 0.078 |
| LSTNTERAFTAWNVIGELGD | inactive |
| NLSSVSIVALLQRVPIYKYL | inactive |
| WCFMQQFVFTLGRKFRIWRI | inactive |
| NVINSMGLSKQIIPSQVQSS | inactive |
| MVCIDPFNENLVRVRMTVIG | inactive |
| YDCKLSRAVLRGV | inactive |

| Substance | amyloid nucleation score |
| --- | --- |
| AWKLKFFVFNSLSVIT | inactive |
| IILFINATGRIRSWCDEYGL | 0.681 ± 0.27 |
| FTCFNGQLVMA | inactive |
| RHSNMSRIPMVLNKEKPGTR | inactive |
| IYIVTYICPVSSRLKGLLCQ | inactive |
| ANAISWGYLIKDYS | inactive |
| VVLAMTHSYRNFKMFRDHYH | 0.957 ± 0.12 |
| VHVRLQAPFPEAL | inactive |
| LAVLIVDKPYADETHRLLVR | inactive |
| DGRRSMATCWIHSNCPWRAS | inactive |
| LLYENTVSSRGTVLRDHLS | 0.456 ± 0.36 |
| YDAIVAPFSFSTLAVVITYG | inactive |
| IFILRLDIIALLNVTGIRIW | inactive |
| MWSIVSGDKVGSSPVLGGCV | inactive |
| NRAVQRFCCDFNAPHIPFR | inactive |
| NSWRHKMMQMKSYHSNVCIW | inactive |
| RSLHWNLGLCIWYNEFRDLM | 1.8 ± 0.074 |
| TTMVIRNAMCNILNVVRKRR | 0.203 ± 0.33 |
| YFKSSFQKSLIDEVALKGWL | 0.224 ± 0.54 |
| DIRCGFLHKQGPLTMRATEQ | inactive |
| LKVVYGSLALPSFKFIWQAE | inactive |
| NTYDAVISIACVSHQSICST | inactive |
| NYSRFGNKKFYHP | inactive |

| Substance | amyloid nucleation score |
| --- | --- |
| SVCLSDRSSGS | inactive |
| LFITLGAV | inactive |
| AKDMEGGQHNDGSDRRNERW | inactive |
| ITGHSVLCWGNSSSTMCEMG | inactive |
| LFYIPFCMSFWTSKDRNA | inactive |
| VHTVTSCNLKDLLMKIHCTR | inactive |
| HRDNLWRWNFFCPNY | 0.993 ± 0.12 |
| RLRLGAAGRQGSEVVYNWSM | 1.23 ± 0.12 |
| LIGSYICYAVGLMVTLNNWW | inactive |
| LVGLGLGFCYLIKTFVTLLV | inactive |
| VVMACGFLGKRGDSGCLLVM | inactive |
| NYRPRKKVFGLR | -0.005 ± 0.88 |
| LIINIHDRLLVRVPLWDWLR | inactive |
| CQSPDALVRWGR | -0.087 ± 0.93 |
| VYYKVKEHVGWVFVSVVCIV | inactive |
| RYRLKM | inactive |
| NKVYLGLTKLHSSDPSEMAC | 2.18 ± 0.067 |
| TDGYFYDRSSVERSL | inactive |
| FYPKLPTLSVQDVGHRKPST | inactive |
| VTLMILKGVFKFM | -0.136 ± 1 |
| VEFSPMFHQGVTM | inactive |
| FAFLWCLDWLNRKRIMSRVE | -1.34 ± 2.5 |
| HSVFISLGMFRPVTSYL | inactive |

| Substance | amyloid nucleation score |
| --- | --- |
| LSLVDEFQSPLLQLLFVQVA | inactive |
| LDTDGSICCCPRAIAHLL | inactive |
| PTIKDLDTSIFGYLLGSVGD | inactive |
| VCNYEVVAVIRDE | inactive |
| HRRIPL | inactive |
| HRTLVMGP | inactive |
| IWYRDSFLPSGRYWFLRINW | inactive |
| SRFEGLASDTDMYSRDSTWR | inactive |
| KIQSSTNLPFGASL | inactive |
| KLFGRCNSNSPIVGWIRCGL | inactive |
| GNMCDRTYLRMMLFHCRMPS | inactive |
| TFLKGSLFCCYYTRDAVDYI | 2.64 ± 0.054 |
| KLLCSLNLVIADEFLTKKGD | 1.85 ± 0.099 |
| VLNFWGAVFPIIMLFYESVY | 2.03 ± 0.096 |
| AIFHGIRCSFMSSSLYTNDG | inactive |
| IKSLFVGGFSLNVTPTHKGR | 1.57 ± 0.13 |
| YAFLELFNFVLNLDLGVGYL | inactive |
| KEMGW | inactive |
| CLACFI | inactive |
| YMHGVWRWVVYRIFLYGRQA | inactive |
| YRLCRGFNSFI | inactive |
| ALYWTEYQ | inactive |
| PEFMTVLDVTMSYWWESCLG | inactive |

| Substance | amyloid nucleation score |
| --- | --- |
| RFTDRCTLHFQMFVVLRAVI | inactive |
| MNKFLSVAIQGIYVERNAHV | 1.34 ± 0.11 |
| LQILLSR | inactive |
| FCSFEVRGCY | 0.346 ± 0.2 |
| RYLIVVFASC | inactive |
| PWFNFECL | inactive |
| YLDFVFGLRTRDNYLWVRPT | inactive |
| IELERMNGL | inactive |
| ERSLFAYMYNNGR | inactive |
| YRGVDLYVGVKLIRTYRVVR | inactive |
| VCMEMLEHIMIWFNSVDT | inactive |
| GVKVSDMSPDRDNLWFSRCS | inactive |
| FFLYLSKRLCVFCRCTYLGL | inactive |
| LKTVSMSYD | inactive |
| SKSITEADNPRNILNASGVE | inactive |
| CSGLCGFSQ | inactive |
| FLMRCISLGGTGANFLLELS | inactive |
| VDEIWMGGLFCILYVSEVHK | inactive |
| HVMTHFG | inactive |
| YRWGISLIEMEQGGVVF | inactive |
| MSLHCDHIAEGNELWGDVRR | inactive |
| RRHKLW | inactive |
| ADKIRIRFY | inactive |

| Substance | amyloid nucleation score |
| --- | --- |
| CFPIASHGDSCGMIAA | inactive |
| SISLITFCRMCDAWLWRFGV | inactive |
| CTLMIFGCN | inactive |
| FLERISFYIKLVSRSYGGTS | inactive |
| CSFTARFLHTMSPKKFKLGN | inactive |
| FIWTFK | 1.35 ± 0.092 |
| CQSVLCAKFLVSERH | inactive |
| SELFSEMREESKGRFNIWEV | inactive |
| EMLFPSRICLCIHDVILPRV | inactive |
| GRGIYGIIARASAPVRRSLV | inactive |
| STPSLGTSF | inactive |
| HITLKSYARIV | inactive |
| SMRLEFGLSMCVWVVDPSN | 0.706 ± 0.15 |
| FDDATEKFIS | inactive |
| IKMSLAELTIFRCLWDCPNS | 2.42 ± 0.077 |
| QLEYNYCDKLVT | inactive |
| YLSDVLSLWCSVQIWSGLYC | inactive |
| ITLRDVGGHGANLWEGMQFM | inactive |
| CGPFGFMCDAVGSAQFDIMM | inactive |
| FSMVCSFKWL | inactive |
| WYLIFGCRASWGSWR | -0.039 ± 0.61 |
| WSYREVHRRDLGLLSNGTCW | inactive |
| SGMLKLSWVVW | 0.667 ± 0.22 |

| Substance | amyloid nucleation score |
| --- | --- |
| EQLKTRNRKVWV | inactive |
| YQYPVVDKRMYIFTTMFYFT | 2.57 ± 0.082 |
| LANSKLDCLSVHLFEHNCLA | 1.95 ± 0.069 |
| LNLAKQCMLPSFPSYMVWYF | inactive |
| RFWFWQPVVYIIRWIRVPLA | inactive |
| QLHTDYPFGACLFSCDGLDM | inactive |
| CAITAQARV | inactive |
| FKSLHTGVQRNTLCARSRTF | inactive |
| RLFLGVGCMS | inactive |
| RSSDSDMSLECKAVE | inactive |
| SMDNFL | inactive |
| MICESFVSLLLVKCELLGTA | inactive |
| CSEQEACISK | inactive |
| VIYVKSIMSFSLCDFDY | 3.11 ± 0.074 |
| IIFDR | inactive |
| CYLSSTGVVYAGYVYI | inactive |
| YMAAVQSTKRNFMHCNKVGS | inactive |
| KYNANYQSSYNIVRLYRVFW | inactive |
| AICAVPRTKMMIQRTSSNRS | inactive |
| RVPYFYFPPLR | inactive |
| IEVIYGV | inactive |
| SICCGDSVVFTVSLPVAGSF | inactive |
